Our source for the Kd values is publication PMC7473639, “Functionally distinct roles for T and Tbx6 during mouse development”.

Data set [1] deals with T1, Tbx6-DBD (T-domain) (mouse, UniProt P70327 90-277).
T1 sequence: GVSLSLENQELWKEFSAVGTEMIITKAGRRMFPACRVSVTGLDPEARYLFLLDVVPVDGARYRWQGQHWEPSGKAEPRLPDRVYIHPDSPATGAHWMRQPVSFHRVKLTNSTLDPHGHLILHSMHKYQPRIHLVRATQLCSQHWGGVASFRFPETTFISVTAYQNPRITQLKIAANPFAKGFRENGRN
The data set can be described thus: quantitative EMSA; Hill coefficient 2.97; 25 mM HEPES pH 7.4, 75 mM NaCl, 1 mM DTT, 0.25 mM EDTA, 0.1% NP-40, 1 mM MgCl2, 10% glycerol, 10 µg/ml BSA, 0.1 mg/ml poly dI-dC; room temperature, 20 min (1 h). The settings on record: protein: recombinant; tags: N-terminal His (pET151/D-TOPO); Methods: removed by TEV; label: 32P 5' end label; blunt (annealed; only one strand given).

For data set [2], the target named is T1, Tbx6-DBD (T-domain). The data set can be described thus: quantitative EMSA; Hill coefficient 3.18; 25 mM HEPES pH 7.4, 75 mM NaCl, 1 mM DTT, 0.25 mM EDTA, 0.1% NP-40, 1 mM MgCl2, 10% glycerol, 10 µg/ml BSA, 0.1 mg/ml poly dI-dC; room temperature, 20 min (1 h). The settings on record: protein: recombinant; tags: N-terminal His (pET151/D-TOPO); Methods: removed by TEV; label: 32P 5' end label; blunt (annealed; only one strand given).

For data set [3], the target named is T2, T-DBD (Brachyury T-domain) (mouse, UniProt P20293 41-224).
T2 sequence: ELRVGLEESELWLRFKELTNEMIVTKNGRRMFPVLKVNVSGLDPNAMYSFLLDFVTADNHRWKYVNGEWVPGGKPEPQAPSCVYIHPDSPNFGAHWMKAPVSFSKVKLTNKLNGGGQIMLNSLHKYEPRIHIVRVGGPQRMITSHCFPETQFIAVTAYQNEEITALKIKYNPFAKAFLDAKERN
Nature of the data set: quantitative EMSA; Hill coefficient 14.42; 25 mM HEPES pH 7.4, 75 mM NaCl, 1 mM DTT, 0.25 mM EDTA, 0.1% NP-40, 1 mM MgCl2, 10% glycerol, 10 µg/ml BSA, 0.1 mg/ml poly dI-dC; room temperature, 20 min (1 h). The settings on record: protein: recombinant; tags: N-terminal His (pET151/D-TOPO), removed by TEV; chain copies: 2; label: 32P 5' end label; blunt (annealed; only one strand given).

B1: Dll1 BS1 (dsDNA)
DNA 1: TCACTGTAGGTGTTGCTGTCCTGT
DNA 2: ACAGGACAGCAACACCTACAGTGA
Regarding B1, the Kd with Tbx6-DBD (T-domain) [1] was 1.53 µM.

B2: Dll1 BS2 (dsDNA)
DNA 1: TCCCGAGGTGTGATTCTTGGA
DNA 2: TCCAAGAATCACACCTCGGGA
Consider B2, for which the Kd with Tbx6-DBD (T-domain) [2] was 1.3 µM; in data set [3] it was 13.9 µM.
